From US20240141038A1 (SHANGHAI QILU PHARMACEUTICAL RESEARCH AND DEVELOPMENT CENTRE, published 2024)

Experiments:
[1] = biological target: T1, Cynomolgus monkey NKp46 for immunization, screening, and testing (Kactus, NKP-CM146) (cynomolgus monkey, UniProt Q95JB9 22-254); assay: ELISA, coated antigen, VHH supernatant, anti-Myc HRP
T1 construct: Bought protein; also called monkey NKp46 antigen protein; cynomolgus monkey NKp46 antigen
Protocol: (§1) In order to obtain positive antibodies that can cross-bind to human NKp46 and cynomolgus monkey NKp46, the above libraries were amplified and added into M13K07 helper phage and assembled into bacteriophages. 1×10¹² pfu of immune camel antibody library and immune alpaca antibody library were added thereto, and the phages were incubated with biotinylated human NKp46 protein (8 μg/mL) bound to magnetic beads for 1 h at room temperature. After washing off the unbound bacteriophages with 0.05% PBST, the phages specifically bound to NKp46 were eluted with […] triethylamine, and after gradient dilution of the bacteriophages above, E. coli SS320 in the logarithmic growth phase were infected. After being cultured overnight at 37° C. on plates containing ampicillin, single-clone was picked for IPTG-induced expression, and the supernatant was used for ELISA assay. ELISA plates were coated with […] human NKp46 antigen or cynomolgus monkey NKp46 antigen overnight at 4° C., then washed 3 times with 0.05% PBST and blocked with 5% skim milk at room temperature for 1 h, and washed 3 times with 0.05% PBST. Then 30 µL of induced supernatant was then added into per well, medium were added to negative control wells, the ELISA plates were incubated at room temperature for 1 h, and finally detected with anti-Myc HRP (VHH with his and c-Myc labels were expressed by the induction of IPTG. Sequence clones that had OD450 values of greater than 1.0 for binding to human NKp46 and cynomolgus monkey NKp46 as determined by ELISA, and of which the ratio of OD450 values to that of negative control were greater than 3 were sequenced, thereby obtaining amino acid sequences of 30 variable regions of heavy chain antibodies disclosed in the present disclosure, as shown in Table 2.

[2] = biological target: T2, Human NKp46 antigen for immunization, screening, and testing (Kactus, NKP-HM146) (human, UniProt O76036 22-255); assay: as above
T2 construct: Bought protein; also called human NKp46 antigen protein; human NKp46 protein
Protocol: as §1

[3] = biological target: T3, human NKp46 (full length, on cells) (human, UniProt O76036 22-304); assay: flow cytometry on human NKp46-CHOK1 cells
T3 construct: also called human NKp46-CHOK1
Protocol: (§2) The stable human NKp46-CHOK1 and cynomolgus monkey NKp46-CHOK1 cell lines obtained in Example 2 were cultured, the cells were digested with 0.25% pancreatic enzyme EDTA for about 5 minutes, and the digestion was terminated with the complete medium. After centrifugation at 1,500 rpm for 5 minutes, the supernatant was discarded, the precipitated cells were resuspended with PBS containing 1% BSA and counted. The cell density was adjusted to 1E6/mL and seeded in a corning-3799 96-well culture plate at 100 μL/well. Aftering centrifuging at 1,500 rpm for 5 minutes, the supernatant was discarded and the precipitate was set aside at 4° C. The antibody solutions were prepared with PBS containing 1% BSA, wherein the antibody solution has an initial concentration was 100 nM, then diluted in 10-fold to obtain 7 gradients: 10⁻⁴ nM, 10⁻³ nM, 10⁻² nM, 10⁻¹ nM, […], and 10² nM. The prepared antibody solutions were used to resuspend the cells, 100 μL/well. The resuspended cell culture plates were incubated in a 4° C. freezer for 1 h. After centrifugation at 1500 rpm for 5 minutes, the supernatant was discarded. The precipitate was washed with 160 μL of PBS containing 1% BSA, the supernatant was discarded, and the cells were stored for later use.
(§3) The Secondary antibody (goat anti human IgG Fc PE) solution was prepared with PBS containing 1% BSA, and diluted 1:200. The cells were resuspended with the prepared secondary antibody solution, 100 μL/well, incubated in a 4° C. freezer for 0.5 h. After centrifugation at 1,500 rpm for 5 minutes, the supernatant was discarded, the precipitated cells were washed with 160 μL of PBS containing 1% BSA, the supernatant was discarded, the cells were resuspended with 100 μL of PBS containing 1% BSA, and filtered in 300-mesh gauze. The mean fluorescence intensity of antibody binding to cells was then analyzed on a flow cytometer. The FCS file was exported from the flow cytometer, the mean fluorescence intensity (hereinafter referred to as MFI) of PE channel was analyzed with Flowjo software, and the mean fluorescence intensity obtained was introduced into the Graphpad to analyze the half binding concentration (hereinafter referred to as EC₅₀) and the top mean fluorescence intensity (Top MFI) of the antibody and the cell.

[4] = biological target: T3, human NKp46 (full length, on cells); assay: cell-based or functional assay
[5] = biological target: T4, cynomolgus monkey NKp46 (full length, on cells) (cynomolgus monkey, UniProt Q95JB9 22-306); assay: flow cytometry on cynomolgus monkey NKp46-CHOK1 cells
T4 construct: also called cynomolgus monkey NKp46-CHOK1; cynomolgus NKp46-CHOK1
Protocol: as §2, §3

T3 sequence (O76036 22-304 Q82K): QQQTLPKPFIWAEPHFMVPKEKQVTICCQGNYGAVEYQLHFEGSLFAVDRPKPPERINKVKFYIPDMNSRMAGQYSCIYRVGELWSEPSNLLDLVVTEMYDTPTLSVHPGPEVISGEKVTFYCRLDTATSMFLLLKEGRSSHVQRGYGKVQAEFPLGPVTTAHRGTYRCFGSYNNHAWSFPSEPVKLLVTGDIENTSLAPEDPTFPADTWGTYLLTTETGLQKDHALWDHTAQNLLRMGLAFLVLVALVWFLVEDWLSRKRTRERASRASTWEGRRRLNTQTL
T2 sequence (O76036 other isoform, or with tags, fused parts or gaps limits assumed): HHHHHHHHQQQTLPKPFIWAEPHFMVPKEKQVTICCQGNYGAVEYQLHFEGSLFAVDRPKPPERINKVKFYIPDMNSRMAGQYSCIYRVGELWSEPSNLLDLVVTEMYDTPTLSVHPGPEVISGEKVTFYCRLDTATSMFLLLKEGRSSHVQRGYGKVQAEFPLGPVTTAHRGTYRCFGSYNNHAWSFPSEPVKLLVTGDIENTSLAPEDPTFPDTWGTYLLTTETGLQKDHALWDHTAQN
T1 sequence (Q95JB9 other isoform, or with tags, fused parts or gaps limits assumed): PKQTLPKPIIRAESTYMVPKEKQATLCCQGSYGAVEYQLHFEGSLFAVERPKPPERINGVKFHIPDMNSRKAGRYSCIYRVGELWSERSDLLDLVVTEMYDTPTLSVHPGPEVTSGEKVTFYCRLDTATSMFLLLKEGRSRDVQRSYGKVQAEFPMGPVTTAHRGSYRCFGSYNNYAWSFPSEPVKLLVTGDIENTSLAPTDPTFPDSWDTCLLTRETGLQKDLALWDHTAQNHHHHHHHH
T4 sequence (Q95JB9 22-306): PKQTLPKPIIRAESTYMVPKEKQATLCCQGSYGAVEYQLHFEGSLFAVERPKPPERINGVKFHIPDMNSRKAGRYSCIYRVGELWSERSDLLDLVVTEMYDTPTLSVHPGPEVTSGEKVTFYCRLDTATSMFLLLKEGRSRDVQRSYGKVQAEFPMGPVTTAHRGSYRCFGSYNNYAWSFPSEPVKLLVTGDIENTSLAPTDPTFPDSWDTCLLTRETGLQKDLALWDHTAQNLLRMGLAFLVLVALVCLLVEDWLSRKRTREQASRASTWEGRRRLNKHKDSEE

Row | Binder | OD450 [1] | ratio of OD450 to negative control [1] | OD450 [2] | ratio of OD450 to negative control [2] | EC50 [3] [pM] | Top MFI [3] | EC50 of NK cell activation (CD107a-positive NK cells, plate-coated antibody) [4] [pM] | Top mean fluorescence intensity (Top MFI), NK cell activation (CD107a) [4] | EC50 [5] [pM] | Top MFI [5]
1 | NKp46-PA24 VHH (his and c-Myc labels) (VHH, IPTG-induced E. coli supernatant used in the screening ELISA; also called NKp46-PA24 clone supernatant; not shown: his and c-Myc labels) VHH: QVQLVESGGGQVQAGGSLRLSCVASGRTYSIYGMGWFRQAPGKEREVVAAINWSSGHTYYADSVKGRFTISKDNAKNTHYLQMNSLKPEDTAVYYCAADSIYGLSFTVKDYDYWGQGTLVTVSS | > 1 | > 3 | > 1 | > 3 |  |  |  |  |  | 
2 | NKp46-PA29 VHH (his and c-Myc labels) (VHH, IPTG-induced E. coli supernatant used in the screening ELISA; also called NKp46-PA29 clone supernatant; not shown: his and c-Myc labels) VHH: QVQLVESGGGWVQPGGSLRLSCAASGRTYSIYGMGWFRQAPGKEREIVAAINWNSGHTYYADSVKGRFTISRDNAKNTHYLQMNSLKPEDTAVYYCAADSIIGLSFTVKDYDYWGQGTQVTVSS | > 1 | > 3 | > 1 | > 3 |  |  |  |  |  | 
3 | NKp46-PA2 VHH (his and c-Myc labels) (VHH, IPTG-induced E. coli supernatant used in the screening ELISA; also called NKp46-PA2 clone supernatant; not shown: his and c-Myc labels) VHH: DVQLVESGGGLVQAGGSLRLSCAASGRTLSSYAMGWFRQAPGLEREFVAAISRISGDTYSPDSVKGRFTISRDNAKNTLYLQMNSLKPEDTAVYYCAASATPSATNIYTNQYAYGDWGQGTQVTVSS | > 1 | > 3 | > 1 | > 3 |  |  |  |  |  | 
4 | H4-PC11 humanized antibody (antibody, human IgG1, V domains shown, not shown: constant region of human IgG1) VH: EVQLVESGGGLVQPGGSLRLSCAPSPYSANSFSMAWFRQAPGKGREGIACIQAESGSTNVAPSVKGRFTISQDNSKNTLYLQMNSLRAEDTAVYYCAAFKRNVGGCELRPEHWRFWGQGTLVTVSS |  |  |  |  | 305 | 7240 | 1840 | 19.3 | 274 | 3620
5 | NKp46-PC2 VHH (his and c-Myc labels) (VHH, IPTG-induced E. coli supernatant used in the screening ELISA; also called NKp46-PC2 clone supernatant; not shown: his and c-Myc labels) VHH: QVQLVESGGGLVQPGGSLRLSCAASGFAFSNYNMFWVRQAPGEGFEWISVINRGGDTADYAASVKGRFTISRDNAKNTLYLQMNSLKTEDTAVYYCARDPLGTTRGQGTLVTVSS | > 1 | > 3 | > 1 | > 3 |  |  |  |  |  | 
6 | NKp46-PA28 VHH (his and c-Myc labels) (VHH, IPTG-induced E. coli supernatant used in the screening ELISA; also called NKp46-PA28 clone supernatant; not shown: his and c-Myc labels) VHH: QVQLVESGGGLVQAGDSLRLSCVASGRTFSTYAMGWFRQAPGKEREFVAAISRNADTTYYADSVKGRFTISRDNAKNTVYLQMNSLKPEDTAVYYCAADRYSSNTQVGVARTYYDYWGQGTQVTVSS | > 1 | > 3 | > 1 | > 3 |  |  |  |  |  | 
7 | NKp46-PA3 VHH (his and c-Myc labels) (VHH, IPTG-induced E. coli supernatant used in the screening ELISA; also called NKp46-PA3 clone supernatant; not shown: his and c-Myc labels) VHH: DVQLVESGGGLVQAGGSLRLSCAASGRTFNTIHWFRQAPGKEREFVARIWWIERTTFYAASVKGRFTISRDNAKNMVYLQMNSLKPEDTAVYYCAADARYTGSRRWESDYWGQGTQVTVSS | > 1 | > 3 | > 1 | > 3 |  |  |  |  |  | 
8 | NKp46-PA22 VHH (his and c-Myc labels) (VHH, IPTG-induced E. coli supernatant used in the screening ELISA; also called NKp46-PA22 clone supernatant; not shown: his and c-Myc labels) VHH: QVQLVESGGGLVQAGGSLRLSCTASGRTFETLHWFRQAPGKEREFVARIWWIGGATFYADSVKGRFTISRDNAKNMVYLQMNSLKPEDTAIYYCAADARYTSNRRWESDYWGQGTQVTVSS | > 1 | > 3 | > 1 | > 3 |  |  |  |  |  | 
9 | NKp46-PA11 VHH (his and c-Myc labels) (VHH, IPTG-induced E. coli supernatant used in the screening ELISA; also called NKp46-PA11 clone supernatant; not shown: his and c-Myc labels) VHH: DVQLVESGGGLVQAGGSLRLSCAASGHTESWYRMGWFRQAPGKGREVVGRISGSPGILYYAGSVKGRFTISRDNAKNTLYLQMTNLKPEDTARYYCAADRTGATWDYWGQGTQVTVSS | > 1 | > 3 | > 1 | > 3 |  |  |  |  |  | 
10 | NKp46-PA27 VHH (his and c-Myc labels) (VHH, IPTG-induced E. coli supernatant used in the screening ELISA; also called NKp46-PA27 clone supernatant; not shown: his and c-Myc labels) VHH: DVQLVESGGGLVQAGASLRLSCAASGRTESWYRMGWFRQAPGKGREVVARISGDTNIKYYAGSVKGRFTISRDNAKNTLYLQMTNLKPEDTARYYCAADRTGATWDYWGQGTQVTVSS | > 1 | > 3 | > 1 | > 3 |  |  |  |  |  | 
11 | NKp46-PA26 VHH (his and c-Myc labels) (VHH, IPTG-induced E. coli supernatant used in the screening ELISA; also called NKp46-PA26 clone supernatant; not shown: his and c-Myc labels) VHH: QVQLVESGGGMVQAGGSLRLSCAASGRTFNTIHWFRQAPGKEREFVARIWWIGGATFYADSVKGRFTISRDNTENLVYLQMNSLKPEDTAVYYCAADARYTSHGYYESDYWGPGTQVTVSS | > 1 | > 3 | > 1 | > 3 |  |  |  |  |  | 
12 | NKp46-PA15 VHH (his and c-Myc labels) (VHH, IPTG-induced E. coli supernatant used in the screening ELISA; also called NKp46-PA15 clone supernatant; not shown: his and c-Myc labels) VHH: QVQLVESGGGLVQAGDSLRVSCAASGRTFSTYAMGWFRQAPGKEREFVAASSRDGTTTYYADSVKGRFTISRDNAKNTVYLQMNSLKPEDTAVYYCAASRPLSTTQVGIASAWYEYWGQGTQVTVSS | > 1 | > 3 | > 1 | > 3 |  |  |  |  |  | 
13 | NKp46-PA19 VHH (his and c-Myc labels) (VHH, IPTG-induced E. coli supernatant used in the screening ELISA; also called NKp46-PA19 clone supernatant; not shown: his and c-Myc labels) VHH: QVQLVESGGGLVQPGGSLRLACAASGRTFSTYAMGWFRQAPGKEREFVAAISRNGGTTYYADSVKGRFTISRDNAKNTVYLQMNSLKPEDTAVYYCAASRPLSNTQVGVASAWYEFWGQGTLVTVSS | > 1 | > 3 | > 1 | > 3 |  |  |  |  |  | 
14 | NKp46-PC13 VHH (his and c-Myc labels) (VHH, IPTG-induced E. coli supernatant used in the screening ELISA; also called NKp46-PC13 clone supernatant; not shown: his and c-Myc labels) VHH: DVQLVESGGGSVQAGGSLRLSCAASGYTRSIYYMGWFRQAPGKEREGVAVMHTGGGSTYYTDSVKGRFTISQDNAKNTVYLQMNSLKPEDTAMYYCAASKYLLAFGGVEWILRPAGGWDYWAQGTQVTVSS | > 1 | > 3 | > 1 | > 3 |  |  |  |  |  | 
15 | NKp46-PC16 VHH (his and c-Myc labels) (VHH, IPTG-induced E. coli supernatant used in the screening ELISA; also called NKp46-PC16 clone supernatant; not shown: his and c-Myc labels) VHH: DVQLVESGGGLVQPGGSLRLSCAISGFTFSIVSMSWVRQAPGKGPERVSWINGDSSNTSYADSVKGRFTISRDNARNMLYLQMNSLKSEDTARYYCTTQNSHYDIRFGYWGQGTQVTVSS | > 1 | > 3 | > 1 | > 3 |  |  |  |  |  | 
